In patent EP4785961A1 (Fortvita Biologics Inc., dated 2025):

Experiments:
[1] = biological target: HER3 expressed on tumor cell lines (NUGC4, HCC1569, NCI-H508, SW620, HCC827 HER3OX) (UniProt P21860 20-1342, limits assumed); experiment: cell-based or functional assay
[2] = biological target: T1, human HER3 (Sino Biological, 10201-H08H) (human, UniProt P21860 20-643); experiment: BLI (Fortebio Octet Red96e), AHC sensors, HER3-MB3 and antigen each at 100 nM
T1 construct: Bought antigen; also called ErbB3

[3] = biological target: T2, monkey HER3 (Sino Biological, 90043-K08H) (cynomolgus monkey, UniProt G7PIG5 20-643); experiment: as above
T2 construct: Bought antigen; also called Cynomolgus monkeys
T2 sequence (G7PIG5 entry or part of it K08H K08H): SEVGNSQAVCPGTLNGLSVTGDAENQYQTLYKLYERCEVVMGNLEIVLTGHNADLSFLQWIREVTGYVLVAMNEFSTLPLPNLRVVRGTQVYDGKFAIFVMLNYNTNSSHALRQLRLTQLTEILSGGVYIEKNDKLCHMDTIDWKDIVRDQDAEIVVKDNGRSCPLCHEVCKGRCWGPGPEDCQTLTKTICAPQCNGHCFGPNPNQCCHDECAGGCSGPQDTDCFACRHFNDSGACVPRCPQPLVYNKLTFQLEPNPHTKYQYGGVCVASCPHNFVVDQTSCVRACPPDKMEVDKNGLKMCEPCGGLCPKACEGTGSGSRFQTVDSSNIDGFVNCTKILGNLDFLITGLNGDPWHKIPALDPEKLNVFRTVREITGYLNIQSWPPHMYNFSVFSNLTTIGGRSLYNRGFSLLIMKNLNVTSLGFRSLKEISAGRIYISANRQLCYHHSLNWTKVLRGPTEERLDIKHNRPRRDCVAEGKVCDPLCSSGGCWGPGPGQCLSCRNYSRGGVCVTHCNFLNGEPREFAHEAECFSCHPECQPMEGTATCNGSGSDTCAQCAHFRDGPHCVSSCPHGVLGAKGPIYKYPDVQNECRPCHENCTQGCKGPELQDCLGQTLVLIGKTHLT

[4] = biological target: T3, rat HER3 (Sino Biological, 80111-R08H) (rat, UniProt Q62799 20-641); experiment: as above
T3 construct: Bought antigen
T3 sequence (Q62799 20-641 limits assumed, stated change not applied): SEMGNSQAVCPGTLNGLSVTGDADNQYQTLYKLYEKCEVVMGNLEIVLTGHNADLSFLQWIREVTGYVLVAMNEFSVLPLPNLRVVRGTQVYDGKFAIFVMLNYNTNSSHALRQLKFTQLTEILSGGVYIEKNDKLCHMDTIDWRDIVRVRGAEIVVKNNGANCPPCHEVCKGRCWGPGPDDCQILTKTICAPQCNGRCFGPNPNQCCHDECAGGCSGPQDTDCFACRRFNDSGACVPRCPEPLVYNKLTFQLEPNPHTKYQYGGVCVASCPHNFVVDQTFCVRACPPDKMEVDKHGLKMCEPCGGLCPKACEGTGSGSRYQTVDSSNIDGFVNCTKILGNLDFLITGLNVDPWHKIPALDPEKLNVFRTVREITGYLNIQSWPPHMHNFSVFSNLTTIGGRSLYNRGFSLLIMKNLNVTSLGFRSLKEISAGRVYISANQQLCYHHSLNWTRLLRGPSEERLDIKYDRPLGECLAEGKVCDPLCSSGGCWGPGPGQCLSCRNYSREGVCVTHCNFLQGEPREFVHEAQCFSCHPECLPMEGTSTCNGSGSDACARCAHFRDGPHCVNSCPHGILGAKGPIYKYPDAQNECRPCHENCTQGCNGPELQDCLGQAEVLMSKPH

[5] = biological target: T4, mouse HER3 (Sino Biological, 51003-M08H) (mouse, UniProt Q61526 20-641); experiment: as above
T4 construct: Bought antigen; also called Mice
T4 sequence (Q61526 20-641 limits assumed, stated change not applied): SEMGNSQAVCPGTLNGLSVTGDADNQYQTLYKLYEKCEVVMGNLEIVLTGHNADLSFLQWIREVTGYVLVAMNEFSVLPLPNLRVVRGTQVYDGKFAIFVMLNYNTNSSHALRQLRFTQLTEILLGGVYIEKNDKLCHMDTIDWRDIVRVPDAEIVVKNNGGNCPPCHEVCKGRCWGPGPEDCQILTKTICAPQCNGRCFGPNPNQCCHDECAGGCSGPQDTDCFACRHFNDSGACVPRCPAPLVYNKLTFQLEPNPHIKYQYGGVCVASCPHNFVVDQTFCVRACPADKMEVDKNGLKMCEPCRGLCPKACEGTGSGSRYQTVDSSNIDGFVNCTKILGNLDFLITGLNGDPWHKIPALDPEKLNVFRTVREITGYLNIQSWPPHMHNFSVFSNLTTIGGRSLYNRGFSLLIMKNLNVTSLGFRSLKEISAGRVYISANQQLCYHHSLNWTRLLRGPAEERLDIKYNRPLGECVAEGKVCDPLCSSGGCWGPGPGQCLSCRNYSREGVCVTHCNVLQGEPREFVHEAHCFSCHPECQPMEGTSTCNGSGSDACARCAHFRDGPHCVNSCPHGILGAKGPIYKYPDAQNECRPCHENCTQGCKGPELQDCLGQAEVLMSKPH

B1: HER3-MB3 (patritumab-MB3) antibody-drug conjugate (antibody, human IgG1, kappa, V domains shown)
VH: QVQLQQWGAGLLKPSETLSLTCAVYGGSFSGYYWSWIRQPPGKGLEWIGEINHSGSTNYNPSLKSRVTISVETSKNQFSLKLSSVTAADTAVYYCARDKWTWYFDLWGRGTLVTVSS
VL: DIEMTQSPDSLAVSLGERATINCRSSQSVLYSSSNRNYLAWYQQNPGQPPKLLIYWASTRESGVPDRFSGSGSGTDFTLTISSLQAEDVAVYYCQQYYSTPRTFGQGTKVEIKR
modifications: drug-linker MB3 (payload MB1) conjugated to cysteines after TCEP reduction; conjugated positions not given; drug-linker MB3 (payload MB1) conjugated to cysteines after TCEP reduction; n mainly 8, average DAR 7.56; conjugated positions not given
notes: Antibody-drug conjugate; also called HER3-ADC
[1]
  IC50 of in vitro killing, HCC1569 tumor cell line (3D culture, 7 days, Cell-Titer): 0.07 nM
  IC50 of in vitro killing, NUGC4 tumor cell line (3D culture, 7 days, Cell-Titer): 0.55 nM
[2]
  Kd: 2.42 nM
  koff: 0.000463 s⁻¹
  kon: 191000 M⁻¹ s⁻¹
[3]
  Kd: 2.55 nM
  koff: 0.000562 s⁻¹
  kon: 221000 M⁻¹ s⁻¹
[4]
  Kd: 38.8 nM
  koff: 0.00615 s⁻¹
  kon: 158000 M⁻¹ s⁻¹
[5]
  Kd: 45.8 nM
  koff: 0.00989 s⁻¹
  kon: 216000 M⁻¹ s⁻¹
